The values below come from US20210269509A1 (Genmab, published 2021).

In the assay the target is T1, Protein L (recombinant protein L immobilized on a matrix; HiTrap Protein L, GE Healthcare) (Finegoldia magna).
T1 construct: also called Protein L resin; Finegoldia magna Protein L
T1 chain: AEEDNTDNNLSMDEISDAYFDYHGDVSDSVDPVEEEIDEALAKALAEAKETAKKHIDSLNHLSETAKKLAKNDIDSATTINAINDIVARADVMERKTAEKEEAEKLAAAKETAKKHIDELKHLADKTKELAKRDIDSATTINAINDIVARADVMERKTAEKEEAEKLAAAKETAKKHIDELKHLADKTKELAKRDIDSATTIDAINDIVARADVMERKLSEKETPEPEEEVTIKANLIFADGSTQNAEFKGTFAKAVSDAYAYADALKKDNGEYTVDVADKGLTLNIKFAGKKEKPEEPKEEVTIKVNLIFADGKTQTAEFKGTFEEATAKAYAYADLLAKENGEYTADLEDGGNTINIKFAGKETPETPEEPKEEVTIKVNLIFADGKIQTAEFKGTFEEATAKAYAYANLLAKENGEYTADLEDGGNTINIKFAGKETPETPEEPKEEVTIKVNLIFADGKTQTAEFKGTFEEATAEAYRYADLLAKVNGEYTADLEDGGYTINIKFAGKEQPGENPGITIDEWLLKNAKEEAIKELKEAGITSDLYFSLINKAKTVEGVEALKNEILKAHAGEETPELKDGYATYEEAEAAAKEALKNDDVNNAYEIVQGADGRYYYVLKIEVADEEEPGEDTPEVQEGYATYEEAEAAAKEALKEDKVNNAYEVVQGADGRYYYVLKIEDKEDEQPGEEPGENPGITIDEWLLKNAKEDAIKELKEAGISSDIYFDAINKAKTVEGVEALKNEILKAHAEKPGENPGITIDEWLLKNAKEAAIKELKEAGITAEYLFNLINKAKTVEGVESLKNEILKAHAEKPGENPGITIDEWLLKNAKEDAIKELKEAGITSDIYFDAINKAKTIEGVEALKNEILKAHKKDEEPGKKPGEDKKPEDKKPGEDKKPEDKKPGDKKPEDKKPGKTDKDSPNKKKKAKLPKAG
Put plainly: HiTrap Protein L (5 mL) chromatography of purified antibody, step elution at pH 3.5, 3.0 and 2.5, A280 trace.

Description: 10 mL of the supernatant was loaded onto the HiTrap Protein L column. […] The column was washed with PBS and specifically bound material was eluted sequentially with 0.1 M glycine-HCl pH 3.5, 3.0 and 2.5 and neutralized with a few drops of 2M Tris pH 9.0. The column was washed using 15 mM sodium hydroxide.

B1: IgG1-2F8-F405L-S12P (antibody, name in EU numbering)
heavy: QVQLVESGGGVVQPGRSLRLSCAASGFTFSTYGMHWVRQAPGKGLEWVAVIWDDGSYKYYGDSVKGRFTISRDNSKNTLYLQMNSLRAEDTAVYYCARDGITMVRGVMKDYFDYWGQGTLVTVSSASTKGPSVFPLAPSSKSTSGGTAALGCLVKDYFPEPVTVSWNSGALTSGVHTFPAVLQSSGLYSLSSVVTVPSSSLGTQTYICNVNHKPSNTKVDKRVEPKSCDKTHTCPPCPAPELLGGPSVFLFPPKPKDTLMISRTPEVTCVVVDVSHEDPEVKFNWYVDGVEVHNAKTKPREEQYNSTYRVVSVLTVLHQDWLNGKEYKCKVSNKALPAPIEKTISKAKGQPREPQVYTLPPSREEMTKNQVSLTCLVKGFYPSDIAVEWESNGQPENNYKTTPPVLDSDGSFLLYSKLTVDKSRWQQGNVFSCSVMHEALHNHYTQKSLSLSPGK
light: AIQLTQSPSSLPASVGDRVTITCRASQDISSALVWYQQKPGKAPKLLIYDASSLESGVPSRFSGSESGTDFTLTISSLQPEDFATYYCQQFNSYPLTFGGGTKVEIKRTVAAPSVFIFPPSDEQLKSGTASVVCLLNNFYPREAKVQWKVDNALQSGNSQESVTEQDSKDSTYSLSSTLTLSKADYEKHKVYACEVTHQGLSSPVTKSFNRGEC
notes: IgG1m(f), kappa; also called IgG-2F8-F405L-S12P; IgG1-2F8-S12P
With B1, the binding result was “no binding”.
